Experimental data: patent publication US20230381329A1, “Zwitterion Polymer-Drug Conjugates” (University of Utah Research Foundation, priority 2022, published 2023)
Read-outs that look alike come from different tables or passages of the source.

Assays:
[1] = target: T1, recombinant human (rHu) insulin (Homo sapiens, UniProt P01308); assay: Insulin aggregation assay (transmittance at 540 nm, continuous agitation at 37° C.); format: physicochemical
T1 construct: Insulin is a 51-residue protein
Method: Insulin or calcitonin solutions were prepared in PBS at pH 7.4 at a final concentration of 1 mg/mL, and with and without the addition of 1.5 molar equivs of CB [7]-PMet for rHu insulin and 5 molar equivs for hCT. […] The plate was shaken continuously at 37° C. and absorbance readings at 540 nm were collected every 6 min the duration of the experiment as reported. Absorbance values were subsequently converted to transmittance. […]

[2] = target: T1, recombinant human (rHu) insulin; details: CB[7] alone, already shown; cited from earlier work
[3] = test system: Chinese hamster ovary cells; details: cited from earlier work
[4] = mice, cited from earlier work
[5] = target: N-terminal phenylalanine residue on insulin (Homo sapiens, UniProt P01308); details: CB[7] macrocycle binding N-terminal phenylalanine of insulin; cited from earlier work
Sequence of N-terminal phenylalanine residue on insulin (P01308 25-54 limits assumed): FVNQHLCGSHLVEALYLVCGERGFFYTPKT
Sequence of N-terminal phenylalanine residue on insulin (P01308 90-110 partner limits assumed): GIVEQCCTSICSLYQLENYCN

Human calcitonin (hCT) = target: T2, Human calcitonin (hCT) (Homo sapiens, UniProt P01258); assay: Calcitonin aggregation assay (transmittance at 540 nm, 37° C.); format: physicochemical; details: for time stabilized against aggregation: with 5 molar equivs CB[7]-PMet^CM80, with agitation, 37° C.; for time stabilized against aggregation / aggregation behavior alone: FIG. 5C; for aggregation behavior alone: without CB[7]-PMet^CM80, PBS pH 7.4, 37° C.; for stabilization against aggregation: with CB[7]-PMet^CM80, FIG. 5C
T2 construct: made in house; host or cells: chemical peptide synthesis (on resin)
T2 sequence (P01258 85-116): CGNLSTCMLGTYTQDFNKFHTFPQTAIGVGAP
Method: Aggregation assay methods. Insulin aggregation assay. Insulin aggregation was assessed (Sluzky, V.; et al. Proc. Natl. Acad. Sci. U.S.A 1991, 88 (21), 9377-9381; and Webber, M. J.; et al. Proc. Natl. Acad. Sci. U.S.A 2016, 113 (50), 14189-14194). Insulin or calcitonin samples at pH 7.4 PBS and a final concentration of 1 mg/mL were prepared with and without the addition of 1.5 molar equivs of CB [7]-PMet. Samples were plated in a clear 96-well plate (Thermo Scientific Nunc) at a volume of 150 μL per well (n=5 wells/group) and sealed with an optically clear and thermally stable seal. The plate was immediately placed into a Tecan Infinite M200 plate reader and shaken continuously at 37° C. Absorbance readings at 540 nm were collected every 6 min the duration of the experiment as reported, and absorbance values were subsequently converted to transmittance.
Calcitonin aggregation assay. hCT and analogs were dissolved in PBS buffer, pH 7.4 and centrifuged at 3000 rpm for 3 min. The supernatant concentration was determined by nanodrop (6=1615 M^−1cm^−1 at 280 nm). hCT and analogs were prepared at a final concentration of 0.5 mg/mL with and without 5 eq of PMet^CM80-CB[7]. Samples were plated at 150 μL per well in a clear 96-well plate (Fisher Scientific Nunc) and sealed with optically clear and thermally stable sealing tape (VWR). The plate was immediately placed into the plate reader at 37° C. Absorbance readings at 540 nm were collected every 6 min with 60 s shaking between reads for […]. Absorbance values were subsequently converted to transmittance.
Aggregation assays. Peptide therapeutics were prepared (Meudom, R.; et al. Curr. Res. Chem. Biol. 2022, 2, 100013) and aggregation was assessed (Sluzky, V.; et al. Proc. Natl. Acad. Sci. U.S.A 1991, 88 (21), 9377-938; and Webber, M. J.; et al. Proc. Natl. Acad. Sci. U.S.A 2016, 113 (50), 14189-14194). Insulin or calcitonin solutions were prepared in PBS at pH 7.4 at a final concentration of 1 mg/mL, and with and without the addition of 1.5 molar equivs of CB [7]-PMet for rHu insulin and 5 molar equivs for hCT. Samples were plated in a clear 96-well plate (Thermo Scientific Nunc) at a volume of 150 μL per well (n=wells/group) and sealed with an optically clear and thermally stable seal. The plate was shaken continuously at 37° C. and absorbance readings at 540 nm were collected every 6 min the duration of the experiment as reported. Absorbance values were subsequently converted to transmittance.
Next, the stabilizing effects of CB[7]-PMet^CM80 on other aggregation-prone proteins was assessed. Human calcitonin (hCT, FIG. 5A) was selected as a model protein therapeutic. Since hCT lacks a terminal Phe for host-guest complexation, the N-terminal amine was selectively modified on-resin with a benzylic amine group using reductive amination chemistry (FIG. 5B). To optimize binding, two spacer lengths between the terminal amine and the benzyl ring were examined comprising either one or two methylene units (hCT A1 and A2, respectively). Aggregation behavior over 40 h was examined using the methods described herein, and with or without CB[7]-PMet^CM80. […] However, addition of CB[7]-PMet^CM80 stabilized hCT A2 for at least 40 h with agitation, while hCT A1 was stabilized for ca. 34 h.

T1 sequence (P01308 25-54 limits assumed): as the sequence (P01308 25-54 limits assumed) above

Substance: Poly-S-Carboxymethyl-L-Methionine Sulfonium Chloride Alkyne [PMetCM-Alk]
- inhibition of rHu insulin aggregation under continuous agitation ([1]; 1 mg/mL insulin, PBS pH 7.4, 1.5 molar equivs additive, 37° C., 100 h, FIG. 3B): no inhibition

Substance: cucurbit[7]uril [CB[7]]
- effect on rHu insulin stability [2]: no effect
- IC50 [3]: 530 ± 20 µM
- tolerated dose ([4]; intravenous): up to 250 mg kg^−1
- tolerated dose ([4]; oral): ≤ 600 mg/kg
- Ka [5]: 1.5e+06 M⁻¹

Substance: hCT A1: benzyl-functionalized human calcitonin with one methylene spacer between the terminal amine and the benzyl ring
- time stabilized against aggregation (Human calcitonin (hCT)): ca. 34 h
- aggregation behavior alone (Human calcitonin (hCT)): rapid aggregation

Substance: hCT A2: benzyl-functionalized human calcitonin with two methylene spacers between the terminal amine and the benzyl ring
- time stabilized against aggregation (Human calcitonin (hCT)): at least 40 h
- stabilization against aggregation (Human calcitonin (hCT)): resistance to aggregation
- aggregation behavior alone (Human calcitonin (hCT)): rapid aggregation

Substance: hCT: Human calcitonin, SEQ ID NO: 3, H2N-CGNLSTCMLGTYTQDFNKFHTFPQTAIGVGAP
- stabilization against aggregation (Human calcitonin (hCT)): not stabilized
- aggregation behavior alone (Human calcitonin (hCT)): rapid aggregation

Substance: rHu insulin: recombinant human insulin, SEQ ID NO: 1 and SEQ ID NO: 2 chains
- aggregation of rHu insulin alone ([1]; no additive, continuous agitation at 37° C., within the first few hours): rapid aggregation
